For the assay, the target named is PSCA (prostate stem cell antigen), human, PSCA v.1 (human) (UniProt O43653). The assay can be described thus: FACS titration on SW780 cells, anti-hIgG-PE, Graphpad Prism sigmoidal dose-response fit.

B1: Ha1-5.99 (antibody, IgG2, V domains shown)
VH: QVHLQQWGAGLLKPSETLSLTCAVYGGSFSGYYWSWIRQPPGKGLEWIGEINHSGSTSYKPSLKSRVTVSVDTSKNQFSLKLSYVTAADTAVYYCARDRGDYGDFLFDYWGQGTLVTVSS
VL: SPGERATLSCRASQSIGSTYLAWYQQKPGQAPRLLIYGASSRATGIPERFSGSGSGTDFTLTISGLEPEDFAVFYCQQCGSSPPTFGQGTKVEIKR
B1 had a dissociation constant Kd of 280 pM.

B2: Ha1-4.37 (antibody, V domains shown)
VH: PGALQESGPGLVRPSQTLSLTCTVSGGSISSGGTYYWIWIRQHPGKGLEWIGYIYYSGSTYYNPSLKSRVTISVDTSKNQFSLKLSSVTAADTAVYYCARDGITMVRGISGGMDVWGQGTTVTVSS
VL: ASVGDRVTITCRASQSISSHLNWYQQKPGKAPKLLIYAASSLQSGVPSRFSGSGSGTDFTLSISSLQPEDFATYFCQQSYSIPRTFGQGTKVEITR
As for B2, the equilibrium dissociation constant (Kd) turned out to be 230 pM.
